Source: publication PMC5522446, “The N-terminal dimerization is required for TDP-43 splicing activity” (Scientific Reports, 2017)

Columns and labels:
[1] = target: TDP(1–77)-C39/C50S (human) (UniProt Q13148); test: SEC; protein at 250 µM; Superdex-200 Increase 10/300 GL; Buffer A; room temperature
[2] = target: TDP(1–77)-C39/C50S (human) (UniProt Q13148); test: SEC; protein at 50 µM; Superdex-200 Increase 10/300 GL; Buffer A (25 mM Tris-HCl, pH 8.0, 150 mM NaCl); room temperature; apparent MW from standard proteins
[3] = target: TDP(1–77)-C39/C50S (human) (UniProt Q13148); test: SEC; protein at 10 µM; Superdex-200 Increase 10/300 GL; Buffer A; room temperature
[4] = target: TDP(1–77)-C39/C50S (human) (UniProt Q13148); test: SEC; protein at 500 µM; Superdex-200 Increase 10/300 GL; Buffer A; room temperature
[5] = target: the molecule itself; test: SEC; protein at 10 µM; Superdex-200 Increase 10/300 GL; Buffer A; room temperature
[6] = target: the molecule itself; test: SEC; protein at 500 µM treated with 5 mM DTT; Superdex-200 Increase 10/300 GL; Buffer A; room temperature
[7] = target: the molecule itself; test: SEC; protein at 250 µM; Superdex-200 Increase 10/300 GL; Buffer A; room temperature
[8] = target: the molecule itself; test: SEC; protein at 50 µM; Superdex-200 Increase 10/300 GL; Buffer A (25 mM Tris-HCl, pH 8.0, 150 mM NaCl); room temperature; apparent MW from standard proteins
[9] = target: the molecule itself; test: SEC; protein at 500 µM; Superdex-200 Increase 10/300 GL; Buffer A; room temperature
[10] = target: the molecule itself; test: SEC; protein at 50 µM; Superdex-200 Increase 10/300 GL; Buffer A (25 mM Tris-HCl, pH 8.0, 150 mM NaCl); room temperature; apparent MW from standard proteins; remark: listed apart in the source
[11] = target: the molecule itself; test: SEC; series of different protein concentrations (Fig. S1, Fig. S2D,E); Buffer A; room temperature

TDP(1–77)-C39/C50S (from UniProt Q13148 1-77) (domain or fragment)
stoichiometry N [1]: 1.8
stoichiometry N [2]: 1.7
stoichiometry N [3]: 1.7
stoichiometry N [4]: 1.8

B1: TDP(1–77) (domain or fragment, human, UniProt Q13148 1-77, looked up)
chain: MSEYIRVTEDENDEPIEIPSEDDGTVLLSTVTAQFPGACGLRYRNPVSQCMRGVRLVEGILHAPDAGWGNLVYVVNY
notes: TDP-43, human, residues 1-77; pET22b, Nde I/Xho I; C-terminal His6 surmised; Printed theoretical MW 9.6 kDa; PDB 2N4P (cited) is His6-TDP(1–77); also called N-terminal 77-residue construct; wild-type TDP(1–77); source: E. coli BL21 (DE3), purified (Ni2+-NTA, SEC)
stoichiometry N [5]: 1.7
stoichiometry N [6]: 2.4
stoichiometry N [7]: 2.1
stoichiometry N [8]: 1.8
stoichiometry N [9]: 2.3

B2: TDP(1–89) (domain or fragment, human, UniProt Q13148 1-89, looked up)
chain: MSEYIRVTEDENDEPIEIPSEDDGTVLLSTVTAQFPGACGLRYRNPVSQCMRGVRLVEGILHAPDAGWGNLVYVVNYPKDNKRKMDETD
notes: TDP-43, human, residues 1-89; pET22b, Nde I/Xho I; C-terminal His6 surmised; Printed theoretical MW 11.1 kDa; also called TDP-43 NTD; source: E. coli BL21 (DE3), purified (Ni2+-NTA, SEC)
stoichiometry N [10]: 2.4

B3: TDP(1–89) Cys mutant (Cys39 and Cys50 to Ser) (domain or fragment, human, UniProt Q13148 1-89, looked up)
chain: MSEYIRVTEDENDEPIEIPSEDDGTVLLSTVTAQFPGASGLRYRNPVSQSMRGVRLVEGILHAPDAGWGNLVYVVNYPKDNKRKMDETD
notes: TDP-43, human, residues 1-89 with Cys39 and Cys50 mutated to Ser; pET22b, Nde I/Xho I; C-terminal His6 surmised; also called TDP(1–89) mutant; source: E. coli BL21 (DE3), purified (Ni2+-NTA, SEC)
binding result [11]: binds
